# Results published in paper PMC9352680, “A comprehensive thermodynamic model for RNA binding by the Saccharomyces cerevisiae Pumilio protein PUF4”.
# T1: PUF4 RNA-binding domain (Saccharomyces cerevisiae, UniProt P25339 537-888)
# T1 sequence: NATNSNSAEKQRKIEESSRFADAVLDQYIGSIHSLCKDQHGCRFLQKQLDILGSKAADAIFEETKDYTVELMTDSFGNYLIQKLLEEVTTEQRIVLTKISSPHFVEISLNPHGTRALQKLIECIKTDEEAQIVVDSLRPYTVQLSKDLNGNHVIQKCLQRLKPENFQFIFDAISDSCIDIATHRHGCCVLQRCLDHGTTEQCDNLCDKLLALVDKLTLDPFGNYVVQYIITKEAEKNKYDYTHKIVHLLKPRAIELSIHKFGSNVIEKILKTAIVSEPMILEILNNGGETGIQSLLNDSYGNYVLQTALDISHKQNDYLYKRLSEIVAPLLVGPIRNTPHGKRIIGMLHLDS
# Molecular target: T1, PUF4 RNA-binding domain
# Assay: Mg; RNA-MaP; 20 mM Na-HEPES pH 7.4, 30 mM KOAc, 0.75 mM MgCl2, 0.1% Tween-20, 5% glycerol, 0.1 mg/mL BSA, 2 mM DTT; 25 C; 0.0125-409.6 nM protein
# Settings: tags: N-His6-TEV cleaved; C-SNAP kept, Cy3B-labelled; label: tethered on chip by stalled RNA polymerase
row,Binder,Kd [nM]
1,UCUCUUUUUAUAUAUUACUUCUCUU (ssRNA) [Id_ii_S1_P4E.3_K4.2_C4.2_[C-2T]_H4.2_A4.1_F4.1_T4.2_[G10C]],21
2,UCUCUUUAUAUAUAUUAGUUCUCUU (ssRNA) [Id_ii_S1_P4E.3_K4.2_C4.2_[C-2T]_[T-1A]_H4.2_A4.1_F4.1_T4.2],9.8
3,UCUCUUUGUCUGUUAUCUCUU (ssRNA) [Ib_S1_P4E.1_K4.1_C4.1_H4.1_[A4C]_A4.1_[A6G]_F4.1_T4.1],626
4,UCUCUUUUUAUAUAUUAGUUCUCUU (ssRNA) [Id_ii_S1_P4E.3_K4.2_C4.2_[C-2T]_H4.2_A4.1_F4.1_T4.2],8.51
5,UCUCUUCGUAUAUAUUAUUUCUCUU (ssRNA) [Id_ii_S1_P4E.3_K4.2_C4.2_[T-1G]_H4.2_A4.1_F4.1_T4.2_[G10T]],21.9
6,UCUCUUCGUAUAUAUUAGCUCUCUU (ssRNA) [Id_ii_S1_P4E.3_K4.2_C4.2_[T-1G]_H4.2_A4.1_F4.1_T4.2_[T11C]],9.29
7,UCUCUUUUUAUAUAUUAUGUCUCUU (ssRNA) [Id_ii_S1_P4E.3_K4.2_C4.2_[C-2T]_H4.2_A4.1_F4.1_T4.2_[G10T]_[T11G]],17.9
8,UCUCUUACUAUAUAUUAAAUCUCUU (ssRNA) [Id_ii_S1_P4E.3_K4.2_C4.2_[C-2A]_[T-1C]_H4.2_A4.1_F4.1_T4.2_[G10A]_[T11A]],87.3
9,UCUCUUUAUAUAUAUUAAAUCUCUU (ssRNA) [Id_ii_S1_P4E.3_K4.2_C4.2_[C-2T]_[T-1A]_H4.2_A4.1_F4.1_T4.2_[G10A]_[T11A]],38.1
10,UCUCUUUAUAUAUAUUAGCUCUCUU (ssRNA) [Id_ii_S1_P4E.3_K4.2_C4.2_[C-2T]_[T-1A]_H4.2_A4.1_F4.1_T4.2_[T11C]],12.7
11,UCUCUUAAUAUAUAUUAUCUCUCUU (ssRNA) [Id_ii_S1_P4E.3_K4.2_C4.2_[C-2A]_[T-1A]_H4.2_A4.1_F4.1_T4.2_[G10T]_[T11C]],79.9
12,UCUCUUUUUAUAUAUUACGUCUCUU (ssRNA) [Id_ii_S1_P4E.3_K4.2_C4.2_[C-2T]_H4.2_A4.1_F4.1_T4.2_[G10C]_[T11G]],30.1
13,UCUCUUAAUAUAUAUUAGCUCUCUU (ssRNA) [Id_ii_S1_P4E.3_K4.2_C4.2_[C-2A]_[T-1A]_H4.2_A4.1_F4.1_T4.2_[T11C]],38.8
14,UCUCUUAUUAUAUAUUAUGUCUCUU (ssRNA) [Id_ii_S1_P4E.3_K4.2_C4.2_[C-2A]_H4.2_A4.1_F4.1_T4.2_[G10T]_[T11G]],18.8
15,UCUCUUUGUCUCUUAUCUCUU (ssRNA) [Ib_S1_P4E.1_K4.1_C4.1_H4.1_[A4C]_A4.1_[A6C]_F4.1_T4.1],813
16,UCUCUUUUUAUAUAUUAACUCUCUU (ssRNA) [Id_ii_S1_P4E.3_K4.2_C4.2_[C-2T]_H4.2_A4.1_F4.1_T4.2_[G10A]_[T11C]],31.8
17,UCUCUUAUUAUAUAUUAACUCUCUU (ssRNA) [Id_ii_S1_P4E.3_K4.2_C4.2_[C-2A]_H4.2_A4.1_F4.1_T4.2_[G10A]_[T11C]],44.1
18,UCUCUUAAUAUAUAUUAACUCUCUU (ssRNA) [Id_ii_S1_P4E.3_K4.2_C4.2_[C-2A]_[T-1A]_H4.2_A4.1_F4.1_T4.2_[G10A]_[T11C]],442
19,UCUCUUAUUAUAUAUUAUCUCUCUU (ssRNA) [Id_ii_S1_P4E.3_K4.2_C4.2_[C-2A]_H4.2_A4.1_F4.1_T4.2_[G10T]_[T11C]],18.9
20,UCUCUUUGUUUUUUAUCUCUU (ssRNA) [Ib_S1_P4E.1_K4.1_C4.1_H4.1_[A4T]_A4.1_[A6T]_F4.1_T4.1],100
21,UCUCUUACUAUAUAUUAUCUCUCUU (ssRNA) [Id_ii_S1_P4E.3_K4.2_C4.2_[C-2A]_[T-1C]_H4.2_A4.1_F4.1_T4.2_[G10T]_[T11C]],29.3

row,Binder,Kd [nM]
1,UCUCUUAUUAUAUAUUAGCUCUCUU (ssRNA) [Id_ii_S1_P4E.3_K4.2_C4.2_[C-2A]_H4.2_A4.1_F4.1_T4.2_[T11C]],15.7
2,UCUCUUAUUAUAUAUUAAUUCUCUU (ssRNA) [Id_ii_S1_P4E.3_K4.2_C4.2_[C-2A]_H4.2_A4.1_F4.1_T4.2_[G10A]],25.6
3,UCUCUUAUUAUAUAUUAUAUCUCUU (ssRNA) [Id_ii_S1_P4E.3_K4.2_C4.2_[C-2A]_H4.2_A4.1_F4.1_T4.2_[G10T]_[T11A]],26.5
4,UCUCUUAAUAUAUAUUAGUUCUCUU (ssRNA) [Id_ii_S1_P4E.3_K4.2_C4.2_[C-2A]_[T-1A]_H4.2_A4.1_F4.1_T4.2],26.7
5,UCUCUUAAUAUAUAUUACUUCUCUU (ssRNA) [Id_ii_S1_P4E.3_K4.2_C4.2_[C-2A]_[T-1A]_H4.2_A4.1_F4.1_T4.2_[G10C]],56.4
6,UCUCUUUUUAUAUAUUAAGUCUCUU (ssRNA) [Id_ii_S1_P4E.3_K4.2_C4.2_[C-2T]_H4.2_A4.1_F4.1_T4.2_[G10A]_[T11G]],485
7,UCUCUUCGUAUAUAUUAAGUCUCUU (ssRNA) [Id_ii_S1_P4E.3_K4.2_C4.2_[T-1G]_H4.2_A4.1_F4.1_T4.2_[G10A]_[T11G]],101
8,UCUCUUUGUCUUUUAUCUCUU (ssRNA) [Ib_S1_P4E.1_K4.1_C4.1_H4.1_[A4C]_A4.1_[A6T]_F4.1_T4.1],333
9,UCUCUUAAUAUAUAUUACCUCUCUU (ssRNA) [Id_ii_S1_P4E.3_K4.2_C4.2_[C-2A]_[T-1A]_H4.2_A4.1_F4.1_T4.2_[G10C]_[T11C]],76.2
10,UCUCUUACUAUAUAUUACUUCUCUU (ssRNA) [Id_ii_S1_P4E.3_K4.2_C4.2_[C-2A]_[T-1C]_H4.2_A4.1_F4.1_T4.2_[G10C]],26.2
11,UCUCUUAGUAUAUAUUAUCUCUCUU (ssRNA) [Id_ii_S1_P4E.3_K4.2_C4.2_[C-2A]_[T-1G]_H4.2_A4.1_F4.1_T4.2_[G10T]_[T11C]],43
12,UCUCUUUAUAUAUAUUAACUCUCUU (ssRNA) [Id_ii_S1_P4E.3_K4.2_C4.2_[C-2T]_[T-1A]_H4.2_A4.1_F4.1_T4.2_[G10A]_[T11C]],15.7
13,UCUCUUACUAUAUAUUAUUUCUCUU (ssRNA) [Id_ii_S1_P4E.3_K4.2_C4.2_[C-2A]_[T-1C]_H4.2_A4.1_F4.1_T4.2_[G10T]],25.9
14,UCUCUUCGUAUAUAUUAGUUCUCUU (ssRNA) [Id_ii_S1_P4E.3_K4.2_C4.2_[T-1G]_H4.2_A4.1_F4.1_T4.2],8.31
15,UCUCUUUGUUUCUUAUCUCUU (ssRNA) [Ib_S1_P4E.1_K4.1_C4.1_H4.1_[A4T]_A4.1_[A6C]_F4.1_T4.1],370
16,UCUCUUAUUAUAUAUUAUUUCUCUU (ssRNA) [Id_ii_S1_P4E.3_K4.2_C4.2_[C-2A]_H4.2_A4.1_F4.1_T4.2_[G10T]],9.53
17,UCUCUUAUUAUAUAUUAAAUCUCUU (ssRNA) [Id_ii_S1_P4E.3_K4.2_C4.2_[C-2A]_H4.2_A4.1_F4.1_T4.2_[G10A]_[T11A]],72.4
18,UCUCUUUUUAUAUAUUACCUCUCUU (ssRNA) [Id_ii_S1_P4E.3_K4.2_C4.2_[C-2T]_H4.2_A4.1_F4.1_T4.2_[G10C]_[T11C]],26.2
19,UCUCUUUGUGUUUUAUCUCUU (ssRNA) [Ib_S1_P4E.1_K4.1_C4.1_H4.1_[A4G]_A4.1_[A6T]_F4.1_T4.1],13.1
20,UCUCUUAUUAUAUAUUACCUCUCUU (ssRNA) [Id_ii_S1_P4E.3_K4.2_C4.2_[C-2A]_H4.2_A4.1_F4.1_T4.2_[G10C]_[T11C]],39
21,UCUCUUAAUAUAUAUUACGUCUCUU (ssRNA) [Id_ii_S1_P4E.3_K4.2_C4.2_[C-2A]_[T-1A]_H4.2_A4.1_F4.1_T4.2_[G10C]_[T11G]],163

row,Binder,Kd [nM]
1,UCUCUUAAUAUAUAUUAUUUCUCUU (ssRNA) [Id_ii_S1_P4E.3_K4.2_C4.2_[C-2A]_[T-1A]_H4.2_A4.1_F4.1_T4.2_[G10T]],54.1
2,UCUCUUUUUAUAUAUUAUCUCUCUU (ssRNA) [Id_ii_S1_P4E.3_K4.2_C4.2_[C-2T]_H4.2_A4.1_F4.1_T4.2_[G10T]_[T11C]],19.8
3,UCUCUUACUAUAUAUUAAUUCUCUU (ssRNA) [Id_ii_S1_P4E.3_K4.2_C4.2_[C-2A]_[T-1C]_H4.2_A4.1_F4.1_T4.2_[G10A]],37.5
4,UCUCUUAAUAUAUAUUACAUCUCUU (ssRNA) [Id_ii_S1_P4E.3_K4.2_C4.2_[C-2A]_[T-1A]_H4.2_A4.1_F4.1_T4.2_[G10C]_[T11A]],48.9
5,UCUCUUCGUAUAUAUUAACUCUCUU (ssRNA) [Id_ii_S1_P4E.3_K4.2_C4.2_[T-1G]_H4.2_A4.1_F4.1_T4.2_[G10A]_[T11C]],29.9
6,UCUCUUUUUAUAUAUUAGGUCUCUU (ssRNA) [Id_ii_S1_P4E.3_K4.2_C4.2_[C-2T]_H4.2_A4.1_F4.1_T4.2_[T11G]],22.6
7,UCUCUUCCUAUAUAUUACGUCUCUU (ssRNA) [Id_ii_S1_P4E.3_K4.2_C4.2_[T-1C]_H4.2_A4.1_F4.1_T4.2_[G10C]_[T11G]],32.8
8,UCUCUUACUAUAUAUUAUGUCUCUU (ssRNA) [Id_ii_S1_P4E.3_K4.2_C4.2_[C-2A]_[T-1C]_H4.2_A4.1_F4.1_T4.2_[G10T]_[T11G]],22.5
9,UCUCUUUUUAUAUAUUAAAUCUCUU (ssRNA) [Id_ii_S1_P4E.3_K4.2_C4.2_[C-2T]_H4.2_A4.1_F4.1_T4.2_[G10A]_[T11A]],55.1
10,UCUCUUUUUAUAUAUUAAUUCUCUU (ssRNA) [Id_ii_S1_P4E.3_K4.2_C4.2_[C-2T]_H4.2_A4.1_F4.1_T4.2_[G10A]],28.9
11,UCUCUUACUAUAUAUUACGUCUCUU (ssRNA) [Id_ii_S1_P4E.3_K4.2_C4.2_[C-2A]_[T-1C]_H4.2_A4.1_F4.1_T4.2_[G10C]_[T11G]],51.9
12,UCUCUUCGUAUAUAUUAAAUCUCUU (ssRNA) [Id_ii_S1_P4E.3_K4.2_C4.2_[T-1G]_H4.2_A4.1_F4.1_T4.2_[G10A]_[T11A]],51.6
13,UCUCUUUUUAUAUAUUAGCUCUCUU (ssRNA) [Id_ii_S1_P4E.3_K4.2_C4.2_[C-2T]_H4.2_A4.1_F4.1_T4.2_[T11C]],10.3
14,UCUCUUACUAUAUAUUACCUCUCUU (ssRNA) [Id_ii_S1_P4E.3_K4.2_C4.2_[C-2A]_[T-1C]_H4.2_A4.1_F4.1_T4.2_[G10C]_[T11C]],38.3
15,UCUCUUACUAUAUAUUAUAUCUCUU (ssRNA) [Id_ii_S1_P4E.3_K4.2_C4.2_[C-2A]_[T-1C]_H4.2_A4.1_F4.1_T4.2_[G10T]_[T11A]],27.2
16,UCUCUUUUUAUAUAUUAUAUCUCUU (ssRNA) [Id_ii_S1_P4E.3_K4.2_C4.2_[C-2T]_H4.2_A4.1_F4.1_T4.2_[G10T]_[T11A]],22.2
17,UCUCUUCCUAUAUAUUACCUCUCUU (ssRNA) [Id_ii_S1_P4E.3_K4.2_C4.2_[T-1C]_H4.2_A4.1_F4.1_T4.2_[G10C]_[T11C]],28
18,UCUCUUACUAUAUAUUAACUCUCUU (ssRNA) [Id_ii_S1_P4E.3_K4.2_C4.2_[C-2A]_[T-1C]_H4.2_A4.1_F4.1_T4.2_[G10A]_[T11C]],33
19,UCUCUUAUUAUAUAUUACAUCUCUU (ssRNA) [Id_ii_S1_P4E.3_K4.2_C4.2_[C-2A]_H4.2_A4.1_F4.1_T4.2_[G10C]_[T11A]],42.9
20,UCUCUUAUUAUAUAUUACUUCUCUU (ssRNA) [Id_ii_S1_P4E.3_K4.2_C4.2_[C-2A]_H4.2_A4.1_F4.1_T4.2_[G10C]],20.1
